B1: Voltage-gated delayed rectifier potassium channel KCNH1 (Homo sapiens), O95259-2 (parent)
chain: MTMAGGRRGLVAPQNTFLENIVRRSNDTNFVLGNAQIVDWPIVYSNDGFCKLSGYHRAEVMQKSSTCSFMYGELTDKDTIEKVRQTFENYEMNSFEILMYKKNRTPVWFFVKIAPIRNEQDKVVLFLCTFSDITAFKQPIEDDSCKGWGKFARLTRALTSSRGVLQQLAPSVQKGENVHKHSRLAEVLQLGSDILPQYKQEAPKTPPHIILHYCVFKTTWDWIILILTFYTAILVPYNVSFKTRQNNVAWLVVDSIVDVIFLVDIVLNFHTTFVGPAGEVISDPKLIRMNYLKTWFVIDLLSCLPYDVINAFENVDEGISSLFSSLKVVRLLRLGRVARKLDHYIEYGAAVLVLLVCVFGLAAHWMACIWYSIGDYEIFDEDTKTIRNNSWLYQLAMDIGTPYQFNGSGSGKWEGGPSKNSVYISSLYFTMTSLTSVGFGNIAPSTDIEKIFAVAIMMIGSLLYATIFGNVTTIFQQMYANTNRYHEMLNSVRDFLKLYQVPKGLSERVMDYIVSTWSMSRGIDTEKVLQICPKDMRADICVHLNRKVFKEHPAFRLASDGCLRALAMEFQTVHCAPGDLIYHAGESVDSLCFVVSGSLEVIQDDEVVAILGKGDVFGDVFWKEATLAQSCANVRALTYCDLHVIKRDALQKVLEFYTAFSHSFSRNLILTYNLRKRIVFRKISDVKREEEERMKRKNEAPLILPPDHPVRRLFQRFRQQKEARLAAERGGRDLDDLDVEKGNVLTEHASANHSLVKASVVTVRESPATPVSFQAASTSGVPDHAKLQAPGSECLGPKGGGGDCAKRKSWARFKDACGKSEDWNKVSKAESMETLPERTKASGEATLKKTDSCDSGITKSDLRLDNVGEARSPQDRSPILAEVKHSFYPIPEQTLQATVLEVRHELKEDIKALNAKMTNIEKQLSEILRILTSRRSSQSPQELFEISRPQSPESERDIFGAS
partner: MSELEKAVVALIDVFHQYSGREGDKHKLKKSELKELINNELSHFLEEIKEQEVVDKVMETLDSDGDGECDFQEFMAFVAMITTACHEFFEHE

Variants of: B1
Conditions: with S100B

Effect of a mutation on the interaction, disrupting interaction:
R675N
R677N
R681N
K682N

Variants of: B1
Conditions: with S100B
Remark: another data set of the same source

Effect of a mutation on the interaction, disrupting interaction:
F714S
F717S
